According to article doi:10.1101/2023.07.17.549284:

Target: T1, ACADVL (mouse (endogenous in heart and kidney)), P50544
T1 chain: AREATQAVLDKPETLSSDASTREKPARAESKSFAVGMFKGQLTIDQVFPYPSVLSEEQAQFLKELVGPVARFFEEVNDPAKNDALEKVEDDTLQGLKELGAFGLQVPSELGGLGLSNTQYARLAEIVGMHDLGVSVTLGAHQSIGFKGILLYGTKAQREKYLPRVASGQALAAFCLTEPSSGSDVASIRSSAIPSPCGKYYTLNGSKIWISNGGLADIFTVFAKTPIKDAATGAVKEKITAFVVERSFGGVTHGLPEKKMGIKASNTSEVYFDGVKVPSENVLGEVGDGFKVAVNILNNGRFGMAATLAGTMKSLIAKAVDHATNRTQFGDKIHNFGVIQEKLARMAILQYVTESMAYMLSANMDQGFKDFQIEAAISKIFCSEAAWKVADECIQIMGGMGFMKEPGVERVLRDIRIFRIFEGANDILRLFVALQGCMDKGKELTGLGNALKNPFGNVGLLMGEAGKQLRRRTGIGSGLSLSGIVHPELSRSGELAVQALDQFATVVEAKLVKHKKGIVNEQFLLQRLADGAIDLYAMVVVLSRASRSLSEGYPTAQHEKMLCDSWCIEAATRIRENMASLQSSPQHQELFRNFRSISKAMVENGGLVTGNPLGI
Experiment: cryo-EM structure
Settings: remark: other sources report otherwise

B1: ACADVL, P50544 42-656 (natural protein)
chain: T1 chain
- stoichiometry N: 2
